Here are results for one molecule from paper PMC8290868 (Cell Discovery, 2021).

This experiment deals with T1, SARS-CoV-2 S protein extracellular domain (S-ECD), prefusion-stabilised trimer (SARS-CoV-2, Wuhan-Hu-1 (wild type), UniProt P0DTC2, proline substitution at residue 986 | proline substitution at residue 987 | …).
T1 construct: also called trimeric SARS-CoV-2 S protein; S trimer
The experiment in a line: cryo-EM structure. The following applies: both partners purified.

B1: 7B8 Fab fragment (Fab, V domains shown)
VH: QVQLVESGGGVVQPGRSLRLSCAASGFIFSSYGMHWVRQAPGKGLEWVAVIWFDGSNKYYADSVKGRFTISRDNSKNTLYLQMNSLRAEDTAVYYCARETVSYGMDVWGQGTTVTVSS
VL: NIQMTQSPSAMSASVGDRVTITCRARQGISNYLAWFQQKPGKVPKHLIYAASSLLSGVPSRFSGSGSETEFTLTISSLQPEDFATYYCLQHNSYPYTFGQGTKLEIK
notes: also called Ab4
Take B1: the binding result is “binds”.
